B1: NADK (non-methylated; construct not stated) (enzyme, human, UniProt O95544 1-446, looked up)
chain: MEMEQEKMTMNKELSPDAAAYCCSACHGDETWSYNHPIRGRAKSRSLSASPALGSTKEFRRTRSLHGPCPVTTFGPKACVLQNPQTIMHIQDPASQRLTWNKSPKSVLVIKKMRDASLLQPFKELCTHLMEENMIVYVEKKVLEDPAIASDESFGAVKKKFCTFREDYDDISNQIDFIICLGGDGTLLYASSLFQGSVPPVMAFHLGSLGFLTPFSFENFQSQVTQVIEGNAAVVLRSRLKVRVVKELRGKKTAVHNGLGENGSQAAGLDMDVGKQAMQYQVLNEVVIDRGPSSYLSNVDVYLDGHLITTVQGDGVIVSTPTGSTAYAAAAGASMIHPNVPAIMITPICPHSLSFRPIVVPAGVELKIMLSPEARNTAWVSFDGRKRQEIRHGDSISITTSCYPLPSICVRDPVSDWFESLAQCLHWNVRKKQAHFEEEEEEEEEG
B2: methylated NADK (construct not stated) (enzyme, human, UniProt O95544 1-446, looked up)
chain: B1 chain
modifications: arginine methylation (the paper's sites are R39, R41 and R45, mono- and di-methylated); extent not stated

Target: the molecule itself

| Protein | stoichiometry N |
| --- | --- |
| B1 | 4 |
| B2 | 4 |
